The results in this text go back to patent US20260144872A1.

This test deals with CD16 (activating FcγRIIIa, CD16a) on NK cells (UniProt P08637). The test can be described thus: cell-based or functional assay.

Values joined by “and” are separate entries in the source; they are usually repeats but may differ in a detail not shown here. Identical values can stand only once.

UniProt P08637, sequence (P08637 17-254 limits assumed): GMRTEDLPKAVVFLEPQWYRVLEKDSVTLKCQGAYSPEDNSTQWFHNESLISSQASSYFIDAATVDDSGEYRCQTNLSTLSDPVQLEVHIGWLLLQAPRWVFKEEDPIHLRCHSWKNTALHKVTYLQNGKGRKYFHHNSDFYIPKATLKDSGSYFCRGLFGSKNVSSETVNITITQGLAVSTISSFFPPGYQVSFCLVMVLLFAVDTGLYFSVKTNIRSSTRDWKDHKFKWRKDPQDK

With “a disintegrin and metalloproteinase domain-containing protein 17 (ADAM17) (from UniProt P78536 215-824)”, the CD16 positive % on NK cells after PMA (1 ug/mL, 1 hour), ADAM17 edited cells was 72.4% and 92%.
The substance “a disintegrin and metalloproteinase domain-containing protein 17 (ADAM17) (from UniProt P78536 215-824) (enzyme)” came in with a CD16 positive % on NK cells after PMA (1 ug/mL, 1 hour), EP controls (ADAM17 intact) of 0.62 to 6%.
